Results: patent US10544441B2, “Method for biocatalytic whole cell reduction of dehydrocholic acid compounds, and 7-β-hydroxysteroid dehydrogenase mutants” (Pharmazell GmbH, priority 2014, dated 2020)

Assays:
Format in all cases: biochemical
[1] = First activity assay of purified 7β-HSDH G39D with NADPH or NADH
Protocol: Enzyme activity determinations were performed at 30° C. in the microtiter plate photometer with a sample volume of 250 μL, in which the change in the NAD(P)H concentration (ε 340=6.22 mL μmol^−1 cm^−1) was monitored at a wavelength of λ=340 nm. Here, the activities were determined by linear regression in the part of the reaction proceeding linearly. For this, the sample to be tested was appropriately diluted with potassium phosphate buffer (50 mM, pH 8.0) and treated with substrate and cofactor. […]
The G39D mutant of the 7β-HSDH was produced as described in WO 2012/080504. The protein was expressed with an N-terminal His tag and purified by IMAC.

[2] = Enzyme kinetic study of 7β-HSDH mutants, DHCA kinetics with NADH as cofactor; settings: 0.5 mM NADH; for vmax (maximal specific enzyme activity): substrate DHCA
Protocol: Enzyme activity determinations were performed at 30° C. in the microtiter plate photometer with a sample volume of 250 μL, in which the change in the NAD(P)H concentration (ε 340=6.22 mL μmol^−1 cm^−1) was monitored at a wavelength of λ=340 nm. Here, the activities were determined by linear regression in the part of the reaction proceeding linearly. For this, the sample to be tested was appropriately diluted with potassium phosphate buffer (50 mM, pH 8.0) and treated with substrate and cofactor. The final concentrations of substrate and cofactor were 10 mM DHCA and 100 μM NADPH for 7β-HSDH, 10 mM DHCA and 100 μM NADH for 3α-HSDH, and 200 mM glucose and 1000 μM NAD(P) for GDH.
The mutants created were assessed by means of enzyme kinetic studies. For the study of the DHCA kinetics, 0.5 mM NADH was used as the cofactor (FIG. 9), while for the study of the NADH kinetics, 10 mM DHCA was used as the substrate (FIG. 10). From the plots of the DHCA kinetics, the characteristic curve shapes of the Michaelis-Menten kinetics can be discerned for the 7β-HSDH mutants, and no substrate inhibition was observed. Accordingly, the classical Michaelis-Menten model (equation 1) was used for the evaluation of the kinetic parameters.
[formula] EAX: specific enzyme activity, U mg^−1=μmol min^−1 mg^−1 vmax: maximal specific enzyme activity, U mg^−1=μmol min^−1 mg^−1 cs: substrate or cofactor concentration, mol L^−1 Km: half-saturation concentration, mol L^−1

[3] = Single-stage biotransformation of DHCA to 3,12-diketo-UDCA with purified NADH-dependent 7β-HSDH mutants; settings: after 16 hrs; 0.2 mg mL^−1 7β-HSDH, 10 U mL^−1 GDH, 0.5 mM NAD, 50 mM DHCA, pH 8.0, 30° C.

Molecule | NADH activity [1] | NADPH activity ([1]; 10 mM DHCA, 0.5 mM NADPH and pH 8.0) | Km [2] | vmax (maximal specific enzyme activity) [2] | vmax (maximal specific enzyme activity) ([2]; listed as 7β-HSDH DFK) | vmax (maximal specific enzyme activity) ([2]; listed as 7β-HSDH DFKG) | conversion of DHCA to 3,12-diketo-UDCA [3]
G39D: 7β-HSDH from Collinsella aerofaciens with substitution G39D, produced as described in WO 2012/080504 (protein) MNLREKYGEWGLILGATEGVGKAFCEKIAAGGMNVVMVDRREEKLNVLAGEIRETYGVETKVVRADFSQPGAAETVFAATEGLDMGFMSYVACLHSFGKIQDTPWEKHEAMINVNVVTFLKCFHHYMRIFAAQDRGAVINVSSMTGISSSPWNGQYGAGKAFILKMTEAVACECEGTGVDVEVITLGTTLTPSLLSNLPGGPQGEAVMKIALTPEECVDEAFEKLGKELSVIAGQRNKDSVHDWKANHTEDEYIRYMGSFYRD | marked NADH activity | 0.040±0.005 U mg^−1 | 660 ± 120 µM | 2.90 ± 0.16 U mg^−1 | – | – | –
DFK: 7β-HSDH mutant with amino acid substitutions G39D R40F R41K compared to the wild type sequence (protein) MNLREKYGEWGLILGATEGVGKAFCEKIAAGGMNVVMVDFKEEKLNVLAGEIRETYGVETKVVRADFSQPGAAETVFAATEGLDMGFMSYVACLHSFGKIQDTPWEKHEAMINVNVVTFLKCFHHYMRIFAAQDRGAVINVSSMTGISSSPWNGQYGAGKAFILKMTEAVACECEGTGVDVEVITLGTTLTPSLLSNLPGGPQGEAVMKIALTPEECVDEAFEKLGKELSVIAGQRNKDSVHDWKANHTEDEYIRYMGSFYRD | – | – | 290 ± 50 µM | 5.91 ± 0.23 U mg^−1 | 5.91±0.23 U mg^−1 | – | –
DF: 7β-HSDH mutant with amino acid substitutions G39D R40F compared to the wild type sequence (protein) MNLREKYGEWGLILGATEGVGKAFCEKIAAGGMNVVMVDFREEKLNVLAGEIRETYGVETKVVRADFSQPGAAETVFAATEGLDMGFMSYVACLHSFGKIQDTPWEKHEAMINVNVVTFLKCFHHYMRIFAAQDRGAVINVSSMTGISSSPWNGQYGAGKAFILKMTEAVACECEGTGVDVEVITLGTTLTPSLLSNLPGGPQGEAVMKIALTPEECVDEAFEKLGKELSVIAGQRNKDSVHDWKANHTEDEYIRYMGSFYRD | – | – | 420 ± 60 µM | 3.70 ± 0.13 U mg^−1 | – | – | –
G39D R40I: previously reported 7β-HSDH double mutant G39D R40I, reference, previously most active mutant (protein) MNLREKYGEWGLILGATEGVGKAFCEKIAAGGMNVVMVDIREEKLNVLAGEIRETYGVETKVVRADFSQPGAAETVFAATEGLDMGFMSYVACLHSFGKIQDTPWEKHEAMINVNVVTFLKCFHHYMRIFAAQDRGAVINVSSMTGISSSPWNGQYGAGKAFILKMTEAVACECEGTGVDVEVITLGTTLTPSLLSNLPGGPQGEAVMKIALTPEECVDEAFEKLGKELSVIAGQRNKDSVHDWKANHTEDEYIRYMGSFYRD | – | – | 920 ± 170 µM | 4.64 ± 0.27 U mg^−1 | – | – | –
DFKG: 7β-HSDH mutant with amino acid substitutions G39D R40F R41K K44G compared to the wild type sequence (protein) MNLREKYGEWGLILGATEGVGKAFCEKIAAGGMNVVMVDFKEEGLNVLAGEIRETYGVETKVVRADFSQPGAAETVFAATEGLDMGFMSYVACLHSFGKIQDTPWEKHEAMINVNVVTFLKCFHHYMRIFAAQDRGAVINVSSMTGISSSPWNGQYGAGKAFILKMTEAVACECEGTGVDVEVITLGTTLTPSLLSNLPGGPQGEAVMKIALTPEECVDEAFEKLGKELSVIAGQRNKDSVHDWKANHTEDEYIRYMGSFYRD | – | – | 380 ± 50 µM | 5.72 ± 0.19 U mg^−1 | – | 5.72±0.19 U mg^−1 | complete conversion
